Experimental data reported in the supplement of paper PMC9876800.

System: peptide library, one residue held at a place counted from the S/T acceptor
Experiment: relative phosphorylation of the sub-library (ratio to the mean residue at this position); higher = residue favoured
Conditions: human
How it was run: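 Relative sub-library phosphorylation is the ratio of each sub-library's signal to the mean residue at that position. The signal came from phosphorimaging of spots on streptavidin membranes, quantified by densitometry, after purified recombinant kinases reacted with biotinylated degenerate peptide sub-libraries in 384-well plates. Reactions held 50 μM peptide and 50 μM ATP spiked with γ-32P-ATP for 90 min under kinase-specific conditions.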

Sequence of CDC7, construct: Full length (O00311 whole entry, looked up): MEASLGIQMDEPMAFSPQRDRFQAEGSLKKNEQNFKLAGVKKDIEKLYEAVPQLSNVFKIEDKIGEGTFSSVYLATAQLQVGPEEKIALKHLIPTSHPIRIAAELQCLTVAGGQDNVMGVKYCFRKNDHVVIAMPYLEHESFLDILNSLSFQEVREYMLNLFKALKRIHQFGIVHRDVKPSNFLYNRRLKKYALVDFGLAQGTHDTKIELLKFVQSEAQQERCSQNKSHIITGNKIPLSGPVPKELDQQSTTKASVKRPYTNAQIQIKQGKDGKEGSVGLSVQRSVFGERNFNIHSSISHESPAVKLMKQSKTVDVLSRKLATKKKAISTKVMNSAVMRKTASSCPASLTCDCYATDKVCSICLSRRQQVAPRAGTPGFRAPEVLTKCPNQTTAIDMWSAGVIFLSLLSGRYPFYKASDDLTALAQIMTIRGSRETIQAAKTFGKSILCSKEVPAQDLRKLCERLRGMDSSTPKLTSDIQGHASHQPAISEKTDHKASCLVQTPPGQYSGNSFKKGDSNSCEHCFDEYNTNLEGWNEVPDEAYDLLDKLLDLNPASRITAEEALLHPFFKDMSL
Sequence of CHUK, construct: Full length (O15111 whole entry, looked up): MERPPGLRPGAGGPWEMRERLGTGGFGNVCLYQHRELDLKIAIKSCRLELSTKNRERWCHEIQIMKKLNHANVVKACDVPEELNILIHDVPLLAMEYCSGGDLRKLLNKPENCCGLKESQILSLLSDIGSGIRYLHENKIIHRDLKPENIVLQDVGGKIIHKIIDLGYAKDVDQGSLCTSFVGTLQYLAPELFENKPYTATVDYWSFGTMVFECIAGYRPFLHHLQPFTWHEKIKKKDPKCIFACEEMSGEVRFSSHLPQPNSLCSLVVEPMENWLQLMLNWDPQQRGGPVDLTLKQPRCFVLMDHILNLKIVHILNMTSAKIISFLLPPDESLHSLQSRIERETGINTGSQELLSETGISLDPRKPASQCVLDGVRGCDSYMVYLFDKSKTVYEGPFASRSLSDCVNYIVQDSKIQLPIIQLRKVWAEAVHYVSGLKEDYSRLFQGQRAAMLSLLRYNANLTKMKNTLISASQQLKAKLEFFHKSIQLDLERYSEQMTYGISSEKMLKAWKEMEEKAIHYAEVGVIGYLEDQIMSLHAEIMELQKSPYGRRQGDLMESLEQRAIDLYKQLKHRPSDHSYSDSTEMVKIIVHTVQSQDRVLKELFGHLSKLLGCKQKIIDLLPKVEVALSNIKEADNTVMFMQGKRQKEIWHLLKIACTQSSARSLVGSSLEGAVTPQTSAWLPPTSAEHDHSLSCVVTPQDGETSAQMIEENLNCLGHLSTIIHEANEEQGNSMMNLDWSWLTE
Sequence of CDK18, construct: Full length (Q07002 whole entry, looked up): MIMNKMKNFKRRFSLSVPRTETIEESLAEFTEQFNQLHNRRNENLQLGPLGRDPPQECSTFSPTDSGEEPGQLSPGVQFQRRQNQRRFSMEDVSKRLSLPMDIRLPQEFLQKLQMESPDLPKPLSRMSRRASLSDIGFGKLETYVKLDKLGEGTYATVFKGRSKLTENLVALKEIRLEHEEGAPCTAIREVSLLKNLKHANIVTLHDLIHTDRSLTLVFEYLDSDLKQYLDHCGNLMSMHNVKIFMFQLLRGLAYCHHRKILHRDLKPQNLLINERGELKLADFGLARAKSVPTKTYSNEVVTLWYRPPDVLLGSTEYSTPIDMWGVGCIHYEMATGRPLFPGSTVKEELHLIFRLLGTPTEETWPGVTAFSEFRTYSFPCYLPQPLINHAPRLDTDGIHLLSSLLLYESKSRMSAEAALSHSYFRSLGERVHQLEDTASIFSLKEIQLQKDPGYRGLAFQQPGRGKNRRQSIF
Sequence of DAPK3, construct: aa1-404 (O43293 1-404, looked up): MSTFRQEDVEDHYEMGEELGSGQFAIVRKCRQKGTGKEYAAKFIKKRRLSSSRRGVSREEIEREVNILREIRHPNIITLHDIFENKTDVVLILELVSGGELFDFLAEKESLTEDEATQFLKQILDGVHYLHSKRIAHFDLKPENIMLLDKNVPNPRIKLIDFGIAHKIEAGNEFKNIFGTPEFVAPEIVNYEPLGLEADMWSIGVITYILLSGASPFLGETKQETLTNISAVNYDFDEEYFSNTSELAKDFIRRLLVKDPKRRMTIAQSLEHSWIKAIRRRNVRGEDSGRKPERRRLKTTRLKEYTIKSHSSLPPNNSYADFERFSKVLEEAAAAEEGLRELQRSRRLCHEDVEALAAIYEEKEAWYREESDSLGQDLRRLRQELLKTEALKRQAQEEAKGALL

CDC7, construct: Full length (from UniProt O00311)
relative phosphorylation
Conditions | at +1 | at +2 | at +3 | at +4 | at -1 | at -2 | at -3 | at -4 | at -5
A fixed | 0.668 | 1.31 | 0.87 | 0.939 | 1.13 | 1.05 | 0.87 | 0.99 | 1.26
D fixed | 2.92 | 0.854 | 2.1 | 0.91 | 0.674 | 1.19 | 1.06 | 1.27 | 0.99
E fixed | 4.74 | 0.689 | 1.03 | 0.832 | 0.819 | 1.13 | 1.15 | 1.04 | 0.856
F fixed | 0.577 | 0.712 | 1.35 | 1.04 | 1.04 | 0.895 | 0.91 | 0.949 | 0.988
G fixed | 0.629 | 1.69 | 1.37 | 1.02 | 1.11 | 0.778 | 1 | 0.929 | 0.934
H fixed | 0.513 | 0.887 | 1.02 | 1.08 | 1 | 0.787 | 0.836 | 0.977 | 1.09
I fixed | 0.549 | 0.834 | 0.864 | 1.01 | 0.485 | 1.07 | 0.849 | 0.82 | 0.93
K fixed | 0.444 | 0.596 | 0.561 | 0.769 | 1.31 | 0.72 | 0.802 | 0.909 | 0.954
L fixed | 0.563 | 1.02 | 0.874 | 0.984 | 0.982 | 1.4 | 0.933 | 0.943 | 0.926
M fixed | 0.765 | 0.893 | 0.676 | 0.932 | 1.18 | 1.11 | 0.894 | 0.921 | 0.95
N fixed | 0.691 | 1.13 | 0.897 | 0.878 | 0.884 | 0.715 | 0.888 | 0.955 | 0.979
P fixed | 0.459 | 1.84 | 0.945 | 1.15 | 1.01 | 1.64 | 1.06 | 1.11 | 0.914
Q fixed | 1.31 | 0.756 | 0.694 | 0.782 | 0.781 | 0.749 | 0.848 | 0.866 | 0.77
R fixed | 0.472 | 0.816 | 0.506 | 0.723 | 1.11 | 1.06 | 1.65 | 0.907 | 1.06
V fixed | 0.612 | 0.737 | 0.761 | 0.894 | 0.671 | 0.988 | 0.856 | 0.935 | 0.943
W fixed | 0.567 | 1.44 | 1.23 | 1.48 | 1.59 | 0.854 | 1.33 | 1.36 | 1.28
Y fixed | 0.523 | 0.796 | 1.25 | 1.58 | 1.23 | 0.884 | 1.06 | 1.12 | 1.18
pThr fixed | 2.38 | 0.801 | 1.41 | 1.34 | 0.583 | 1.12 | 1.46 | 1.13 | 0.831
pTyr fixed | 0.631 | 0.537 | 0.792 | 1.15 | 0.684 | 0.717 | 1.06 | 0.937 | 0.844

CDK18, construct: Full length (from UniProt Q07002)
relative phosphorylation
Conditions | at +1 | at +2 | at +3 | at +4 | at -1 | at -2 | at -3 | at -4 | at -5
A fixed | 0.339 | 0.788 | 1.01 | 1.29 | 1.11 | 1.37 | 1.15 | 1.33 | 1.04
D fixed | 0.148 | 0.632 | 0.364 | 0.521 | 0.489 | 0.384 | 0.605 | 0.835 | 0.919
E fixed | 0.127 | 0.377 | 0.292 | 0.355 | 0.348 | 0.463 | 0.719 | 0.823 | 0.831
F fixed | 0.196 | 0.581 | 1.03 | 0.759 | 0.57 | 0.705 | 0.539 | 0.696 | 0.844
G fixed | 1.13 | 0.837 | 0.922 | 2.23 | 2.13 | 1.11 | 2.12 | 1.24 | 1.15
H fixed | 0.274 | 1.23 | 0.695 | 1.21 | 0.987 | 0.807 | 1.05 | 1.02 | 1.37
I fixed | 0.178 | 0.705 | 1.03 | 0.634 | 0.247 | 0.72 | 0.569 | 0.788 | 0.804
K fixed | 0.316 | 2.28 | 0.862 | 1.33 | 1.67 | 0.671 | 0.937 | 1.48 | 1.53
L fixed | 0.199 | 0.877 | 2.5 | 0.581 | 0.561 | 0.963 | 0.589 | 1 | 1.16
M fixed | 0.196 | 0.901 | 1.46 | 0.699 | 0.934 | 0.887 | 0.648 | 0.718 | 0.799
N fixed | 0.239 | 1.11 | 0.806 | 1.16 | 1.02 | 0.777 | 1.06 | 1.27 | 1.12
P fixed | 12.4 | 0.972 | 2.05 | 0.831 | 1.71 | 3.93 | 2.29 | 1.43 | 1.12
Q fixed | 0.279 | 1.06 | 1.03 | 0.969 | 1.13 | 0.999 | 1.03 | 1.01 | 0.77
R fixed | 0.281 | 2.23 | 0.719 | 1.79 | 1.9 | 0.94 | 1.33 | 0.941 | 0.827
V fixed | 0.263 | 0.744 | 1.04 | 0.703 | 0.379 | 0.852 | 0.768 | 0.596 | 0.677
W fixed | 0.236 | 0.782 | 0.703 | 1.09 | 0.911 | 0.886 | 0.852 | 1.05 | 1.12
Y fixed | 0.184 | 0.887 | 0.498 | 0.845 | 0.914 | 0.543 | 0.748 | 0.765 | 0.911
pThr fixed | 0.415 | 0.681 | 0.949 | 0.372 | 0.316 | 0.823 | 0.982 | 0.951 | 0.78
pTyr fixed | 0.508 | 0.48 | 0.815 | 0.591 | 0.341 | 0.572 | 0.943 | 0.82 | 1.07

CHUK, construct: Full length (from UniProt O15111)
relative phosphorylation
Conditions | at +1 | at +2 | at +3 | at +4 | at -1 | at -2 | at -3 | at -4 | at -5
A fixed | 0.486 | 0.954 | 0.902 | 0.978 | 0.716 | 1.1 | 0.777 | 1.15 | 1.29
D fixed | 0.518 | 1.23 | 1.9 | 1.66 | 1.19 | 0.571 | 1.27 | 2.17 | 2.57
E fixed | 0.61 | 1.26 | 2.02 | 1.55 | 1.11 | 1.1 | 1.53 | 2.15 | 2.29
F fixed | 1.22 | 0.635 | 0.576 | 0.717 | 0.688 | 2 | 0.809 | 0.602 | 0.657
G fixed | 1.18 | 1.55 | 1.48 | 1.43 | 0.615 | 0.548 | 1.12 | 1.55 | 1.4
H fixed | 1.01 | 1.34 | 1.14 | 1.17 | 1.17 | 1.23 | 1.15 | 0.888 | 1.12
I fixed | 1.94 | 0.78 | 0.548 | 0.769 | 0.346 | 0.874 | 0.365 | 0.49 | 0.395
K fixed | 0.28 | 0.408 | 0.358 | 0.746 | 1.5 | 0.25 | 0.875 | 0.417 | 0.556
L fixed | 1.68 | 0.726 | 0.688 | 0.724 | 0.702 | 1.59 | 0.408 | 0.552 | 0.548
M fixed | 1.86 | 0.982 | 0.772 | 0.918 | 0.962 | 1.06 | 0.784 | 0.79 | 0.591
N fixed | 0.931 | 1.9 | 1.28 | 1.17 | 1.58 | 1.35 | 1.69 | 1.17 | 1.22
P fixed | 0.282 | 1.12 | 1.16 | 1.24 | 1.54 | 0.68 | 2.06 | 1.87 | 0.981
Q fixed | 0.729 | 1.25 | 1.24 | 1.13 | 1.47 | 0.804 | 1.18 | 0.978 | 0.889
R fixed | 0.162 | 0.27 | 0.26 | 0.177 | 0.641 | 0.176 | 0.728 | 0.314 | 0.476
V fixed | 1.46 | 1.1 | 0.636 | 0.667 | 0.688 | 0.644 | 0.567 | 0.547 | 0.664
W fixed | 1.29 | 0.756 | 1.04 | 0.978 | 0.784 | 0.663 | 0.704 | 0.693 | 0.791
Y fixed | 1.36 | 0.75 | 1.01 | 0.977 | 1.31 | 2.36 | 0.991 | 0.68 | 0.562
pThr fixed | 0.978 | 1.06 | 1.08 | 1.62 | 0.755 | 1.24 | 1.4 | 1.56 | 1.06
pTyr fixed | 1.1 | 1.25 | 0.908 | 1.08 | 1.55 | 5.95 | 2.02 | 1.32 | 0.984

DAPK3, construct: aa1-404 (from UniProt O43293)
relative phosphorylation
Conditions | at +1 | at +2 | at +3 | at +4 | at -1 | at -2 | at -3 | at -4 | at -5
A fixed | 0.877 | 0.903 | 0.724 | 0.839 | 0.73 | 1.06 | 0.654 | 1 | 0.953
D fixed | 1.61 | 0.84 | 0.753 | 0.791 | 0.823 | 0.448 | 0.447 | 0.844 | 0.79
E fixed | 1.69 | 0.976 | 0.719 | 0.706 | 0.601 | 0.398 | 0.393 | 0.85 | 0.666
F fixed | 0.52 | 0.932 | 1.02 | 1.14 | 0.667 | 0.338 | 0.412 | 0.759 | 0.583
G fixed | 1.15 | 0.661 | 0.89 | 0.939 | 0.888 | 0.74 | 0.636 | 0.947 | 1.03
H fixed | 0.825 | 1.01 | 1.04 | 1.51 | 1.29 | 1.24 | 0.835 | 1.1 | 1.17
I fixed | 0.786 | 0.873 | 1.95 | 0.95 | 0.58 | 0.313 | 0.311 | 0.645 | 0.73
K fixed | 0.595 | 0.789 | 0.685 | 0.712 | 1.48 | 1.33 | 2.51 | 1.65 | 1.59
L fixed | 0.707 | 1.44 | 1.63 | 0.902 | 0.946 | 0.361 | 0.365 | 0.677 | 0.927
M fixed | 1.15 | 1.5 | 1.08 | 0.984 | 0.943 | 0.415 | 0.422 | 0.871 | 0.912
N fixed | 1.33 | 1.03 | 0.776 | 1 | 1.69 | 0.952 | 0.548 | 0.85 | 0.891
P fixed | 0.309 | 0.9 | 0.78 | 0.885 | 1.06 | 0.406 | 0.703 | 0.854 | 0.959
Q fixed | 2.62 | 1.25 | 0.804 | 0.797 | 1.15 | 0.989 | 0.769 | 1.04 | 0.942
R fixed | 0.811 | 1.13 | 0.942 | 1.03 | 1.71 | 6.46 | 6.61 | 2.25 | 2.36
V fixed | 0.807 | 0.827 | 1.41 | 0.927 | 0.698 | 0.397 | 0.294 | 0.844 | 0.699
W fixed | 0.638 | 0.941 | 0.984 | 1.61 | 0.753 | 0.755 | 0.634 | 1.02 | 0.776
Y fixed | 0.582 | 1.01 | 0.808 | 1.28 | 1 | 0.401 | 0.462 | 0.803 | 1.01
pThr fixed | 1.83 | 1.01 | 0.854 | 1.04 | 0.695 | 0.53 | 0.633 | 0.84 | 0.973
pTyr fixed | 1.19 | 1.02 | 1.35 | 1.08 | 0.957 | 0.623 | 0.605 | 0.929 | 1.1
